{"source": "paper PMC6497670", "assay_in_all_cases": "PELDOR/DEER EPR; MTSSL-labelled protein reconstituted in soybean phosphatidylcholine liposomes (1:20 protein/lipid), 50 mM KPi pH 8.0, spin concentration 80-130 µM, 20% deuterated glycerol, Q-band, 50 K; monomer to dimer", "key": {"[1]": {"target": "SLC26Dg K353R1 (single-cysteine mutant K353C labelled with MTSSL) (Deinococcus geothermalis)"}, "[2]": {"target": "SLC26Dg L385R1 (single-cysteine mutant L385C labelled with MTSSL) (Deinococcus geothermalis)"}, "[3]": {"target": "SLC26Dg V367R1 (single-cysteine mutant V367C labelled with MTSSL) (Deinococcus geothermalis)"}}, "data": [{"substance": "SLC26Dg K353R1 (single-cysteine mutant K353C labelled with MTSSL) (natural protein)", "values": [{"measurement": "stoichiometry N", "setting": "[1]", "value": 2}]}, {"substance": "SLC26Dg L385R1 (single-cysteine mutant L385C labelled with MTSSL) (natural protein)", "values": [{"measurement": "stoichiometry N", "setting": "[2]", "value": 2}]}, {"substance": "SLC26Dg V367R1 (single-cysteine mutant V367C labelled with MTSSL) (natural protein)", "values": [{"measurement": "stoichiometry N", "setting": "[3]", "value": 2}]}]}
